Results taken from patent publication US20090022659A1 (ALDERBIO, published 2009).
Substitutions are numbered along the chain they refer to.

B1: anti-TNF-α antibody Ab1 (antibody, V domains shown)
VH: QSVEESGGRLVTPGTPLTLTCTVSGFSLSTYNMGWVRQAPGKGLEYIGYVLGSGITYYASWAKGRFTISKTSTTVDLEITSPTTEDTATYFCARDAGGRASL
VL: ADIVMTQTPASVEAAVGGTVTIKCQASQNIRSWLAWYQQKPGQPPKLLIYGASTLASGVPSRFQGSGSGTEYTLTIIDLDCADAATYYCQSNYGSNDNSYGNG
notes: Rabbit-derived; they start with the leader peptide and end at CDR3 (no framework 4); no cleavage site is stated for this antibody
B2: anti-TNF-α antibody Ab2 (antibody, V domains shown)
VH: QSVEESGGRLVTPGTPLTLTCSVSGFSLNNYVMGWVRQAPGKGLEFIGYIAFGIGPYYASWAKGRFTISSTSSTTVDLKMTSLTPEDTATYFCARGDYSGNDI
VL: ADIVMTQTPSSVSEPVRGTVTIKCQASQNIYSYLSWYQQSPGQPPKLLIYKASTLASGVPSRFKGSGSGTDFTLTISDLECADAATYYCQSNYGSDSDSFGNA
B3: anti-TNF-α antibody Ab8 (antibody, V domains shown)
VH: B2 VH with S22T, V23A, N29S, S60T, T67S, K79T, D102N
VL: B2 VL with R17G, K23M, S40K, K64A, D96N
B4: anti-TNF-α antibody Ab19 (antibody, V domains shown)
VH: B2 VH with V32I, I68S, Y98V
VL: B2 VL with Q38R, K46N, D96N
B5: anti-TNF-α antibody Ab9 (antibody, V domains shown)
VH: QSVEESGGRLVTPGTPLTLTCTVSGFSLSIYWMTWVRQAPGKGLEWIGVISTDGSAYYATWAKGRFTISKTSSTTVDLRITSPTTEDTATYFCAGGGGMDP
VL: AQVLTQTPSSVSAAVGGTVTVSCQSSQNVYNNNDFVWFQQKPGQPPKRLIYWASTLASGVPSRFKGSGSGTQFTLTINDLECDDAATYYCAGAYITELRT
B6: anti-TNF-α antibody Ab10 (antibody, V domains shown)
VH: B5 VH with K42R, S55T, A56T, T60N, T71A
VL: B5 VL with P8A, V21I, N28S, V36I, P61S, T87V, I95D, T96S, L98V, T100A
B7: anti-TNF-α antibody Ab11 (antibody, V domains shown)
VH: B5 VH with S51A, T52S, A56T, T60S, T71A, R79K, T81A, T85I
VL: AQVMTQTPASVSAAVGGTVTISCQSSESVYNNNDLIWFRQKPGQPPKRLIYWASQLASGVSSRFKGSGSGTQFTLTINDLECDDAATYYCAGAYDSEIRA
B8: anti-TNF-α antibody Ab12 (antibody, V domains shown)
VH: QSVEESGGRLVTPGTPLTLTCTVSGFSLSHYAMGWVRQAPGKGLEWIGIISSNGVTYYATWASGRFTISKTSTTVDLKITSPTTEDTATYFCARGDDTSIIYYIYAFDL
VL: ALVMTQTPSPVSAAVGGTVTISCQSSESVVFNNRLSWYQQKPGQPPKLLIYWASTLASGVPSRFKGSGSGTQFTLTISGVECDDAATYYCAGYKSYSNDDFA
B9: anti-TNF-α antibody Ab13 (antibody, V domains shown)
VH: QSVEESGGRLVTPGTPLTLTCTVSGIDLSSYAMGWVRQAPGKGLEYIGYILSSGITYYASWARGRFTISKTSSTTVDLKMTSLTTEDTATYFCARNGNYNSGTDI
VL: ADIVMTQTPASVSEPVGGTVTIKCQASQNIYSTLAWYQQKPGQPPKLLIYLASTLASGVPSRFKGSGSGTQFTLTISDLECADAATYYCQTSHGSNSDSFGYA
B10: anti-TNF-α antibody Ab14 (antibody, V domains shown)
VH: B9 VH with I26F, D27S, L51G, A59T, T71P
VL: B9 VL with S92N
B11: anti-TNF-α antibody Ab17 (antibody, V domains shown)
VH: B9 VH with V3L, T15G, P16S, I50V, S52G, A94V, G97D
VL: B9 VL with N29S, Y50S, S92N
B12: anti-TNF-α antibody Ab18 (antibody, V domains shown)
VH: B9 VH with A94V, S101V
VL: B9 VL with A56E, Q71E, D98E
B13: anti-TNF-α antibody Ab15 (antibody, V domains shown)
VH: QSVEESGGRLVSPGTPLTLTCTVSGIDLSSYGMGWVRQAPGKGLEYIGYMIASGITYYAAWAKGRFTISKTSSTTVDLKITSPTTEDTATYFCARNYYGMDP
VL: ADIVMTQTPASVSEPVGGTVTIKCQASQSIYSSFSWYQQIPGQRPKLLIYYASTLASGVPSRFSGSGSGTDFTLTISDLECADAATYYCQSNHGSNGDSFGNA
B14: anti-TNF-α antibody Ab16 (antibody, V domains shown)
VH: QSLEESGGRLVKPDETLTITCTVSGIDLNNYNMGWVRQAPGKGLEYIGYILGSGITYYATWAKGRFTISKTSSTTVDLKMTSLTTEDTATYFCAGSIYYRGYGMDP
VL: B13 VL with S29T, F34L, I40K, Y51A, S64K, G97S, F100Y
B15: anti-TNF-α antibody Ab3 (antibody, V domains shown)
VH: QSVEESGGRLVTPGTPLTLTCKVSGFSLSSYDMTWVRQAPGKGLEWIGYIWNDGSTAYASWATGRFTISKTSTTVDLKIASPTTEDTATYFCARGPVFATTLGYYFTI
VL: MDTRAPTQLLGLLLLWLPGSTFAIKVTQTPASVSAAVGGTVSINCQASEDIESYLAWYQQKPGQPPKLLLYDASALASGVPSRFKGSGSGTEYTLTISGVECADAATYYCQQGYSYSNVDNS
B16: anti-TNF-α antibody Ab4 (antibody, V domains shown)
VH: QSVEESGGRLVTPGTPLTLTCTVSGLSLSTETINWVRQAPGKGLEWIGYIDSSGGTGYANWARGRFTISKTSTTVDLKITSPTTGDTATYFCARGTITTGMNI
VL: MDTRAPTQLLGLLLLWLTGATFAAVLTQTPSPVSAVVGGTVSISCQSSKRVVNSVALSWYQQKPGRSPKLLIYFASKLASGVPSRFKGSGSGTQFTLAISDVQCDDAATYYCAGHYTDSGDDA
B17: anti-TNF-α antibody Ab5 (antibody, V domains shown)
VH: B5 VH with T22A, I30V, V49T, S55I, A56T, Y57V, T75A, R79K, I80L
VL: MDTRAPTQLLGLLLLWLPGATLAQVVTQTPASVSAAVGGTVTISCQSSQNVYNNNDLVWFQQKPGQPPKRLVYWASTLASGVSSRFRGSGSGTQFILTISDLQCDDAATYYCAGAYDSEIRA
B18: anti-TNF-α antibody Ab6 (antibody, V domains shown)
VH: METGLRWLLLVAVFKGVQCQSVEESGGRLVTPGTPLTLTCTVSGFSLSSNTISWVRQAPGKGLEWIGYIWRGVSTYYATWAKGRFTISKTSSTTVDLKITGPTTEDTATYFCARDAGDGGGYSLDL
VL: MDTRAPTQLLGLLLLWLPDARCAYDMTQTPASVEVAGGGTVTIKCQASQSIANRLAWYQQKPGQPPKLLIYYASTLASGVPSRFSGSGSGTEFTLTISGVQCDDAATYYCQQTYSDNNVDNA
B19: anti-TNF-α antibody Ab7 (antibody, V domains shown)
VH: QSVEESGGRLVTPGTPLTLTCTVSGFSLSSDNMGWVRQAPGKGLEYIGYITYGGFTYYATWAKGRFTISKTSTTVDLKMTSPTTEDTATYFCAREAGGRANV
VL: B1 VL with K23N, N29S, R31V, Q64K, I77S, D80E, D97S, N98H, Y100F, G103T

The binders below were run against T1, Tumor Necrosis Factor-alpha (TNF-α), R&D systems 210-TA / 210-TA-CF (human, UniProt P01375 77-233) (assay: OD versus antibody concentration, fitted sigmoid; the assay is not named for this figure (legend: binding affinity of the anti-TNF-α antibody Ab1); the unit is that of the concentration axis, none stands beside the number).
T1 construct: Bought protein; also called huTNF-α
T1 sequence (P01375 77-233 limits assumed): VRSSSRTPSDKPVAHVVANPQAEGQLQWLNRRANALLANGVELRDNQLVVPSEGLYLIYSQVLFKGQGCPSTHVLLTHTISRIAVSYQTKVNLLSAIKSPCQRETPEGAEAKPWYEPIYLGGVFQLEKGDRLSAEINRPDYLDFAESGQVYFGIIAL

| Binder | EC50 [µg/mL] |
| --- | --- |
| B1 | 0.0461 |

These binders were tested against T1, Tumor Necrosis Factor-alpha (TNF-α), … (assay: cell-based or functional assay).

| Binder | EC50 (read off the curve); OD versus antibody concentration (the assay is not named for this figure) [µg/mL] |
| --- | --- |
| B1 | ~0.0006 |

The binders below were run against T1, Tumor Necrosis Factor-alpha (TNF-α), … (assay: OD versus antibody concentration; the assay is not named for this figure (legend: binding affinity of the anti-TNF-α antibody Ab1)).

| Binder | EC50 (read off the curve) [µg/mL] |
| --- | --- |
| B1 | ~0.05 |

These binders were tested against T1, Tumor Necrosis Factor-alpha (TNF-α), … (assay: biolayer interferometry (Octet QK); biotinylated TNF-α on streptavidin sensor, antibody 8 nM to 1 nM).
Procedure: Binding kinetics of certain Anti-TNF-α antibodies referenced in this experiment were determined using biolayer Interferometry on an Octet QK instrument (ForteBio, Menlo Park, Calif.). Biotinylated TNF-α (R&D systems part number 210-TA, biotinylated using Pierce EZ-link sulfo-NHS-LC-LC-biotin product number 21338 according to manufacturer's protocols) was initially bound onto a streptavidin coated biosensor (ForteBio, Menlo Park, Calif. part number 18-5006). TNF-α coated sensors were then incubated with the Anti-TNF-α antibodies at concentrations ranging from 8 nM to 1 nM. Binding was monitored as an increase in signal over a period of 900 seconds.
Sensors removed from the antibody dilutions and immediately incubated in diluent were monitored for a dissociation phase over an 1800 second time period. For these studies, all proteins were diluted using ForteBio's sample diluent buffer (ForteBio, Menlo Park, Calif. part number 18-5028). Analysis of Kinetic data was performed using ForteBio Software utilizing full dissociation modeling.

| Binder | Kd [nM] |
| --- | --- |
| B1 | 0.01 |
| B2 | 0.01 |
| B3 | 0.01 |
| B4 | 0.06 |
| B5 | 0.025 to 0.05 |
| B6 | 0.015 to 0.03 |
| B7 | 0.02 |
| B8 | 0.01 to 0.025 |
| B9 | 0.01 to 0.05 |
| B10 | 0.01 |
| B11 | 0.01 |
| B12 | 0.01 |
| B13 | 0.01 |
| B14 | 0.01 |
| B15 | 0.02 to 0.04 |
| B16 | 0.01 |
| B17 | 0.025 to 0.05 |
| B18 | 0.01 |
| B19 | 0.01 |
